In patent publication US20240034786A1 (WUXI BIOLOGICS IRELAND, published 2024):

Assays:
[1] = molecular target: T1, WBP319-hPro2.ECD.His (R&D) (human, UniProt P12830 155-709); assay: capture ELISA, antigen held by anti-His antibody
T1 construct: extracellular domain; Bought protein; also called human E-Cadherin.ECD.His; Human E-Cadherin
T1 sequence (looked up): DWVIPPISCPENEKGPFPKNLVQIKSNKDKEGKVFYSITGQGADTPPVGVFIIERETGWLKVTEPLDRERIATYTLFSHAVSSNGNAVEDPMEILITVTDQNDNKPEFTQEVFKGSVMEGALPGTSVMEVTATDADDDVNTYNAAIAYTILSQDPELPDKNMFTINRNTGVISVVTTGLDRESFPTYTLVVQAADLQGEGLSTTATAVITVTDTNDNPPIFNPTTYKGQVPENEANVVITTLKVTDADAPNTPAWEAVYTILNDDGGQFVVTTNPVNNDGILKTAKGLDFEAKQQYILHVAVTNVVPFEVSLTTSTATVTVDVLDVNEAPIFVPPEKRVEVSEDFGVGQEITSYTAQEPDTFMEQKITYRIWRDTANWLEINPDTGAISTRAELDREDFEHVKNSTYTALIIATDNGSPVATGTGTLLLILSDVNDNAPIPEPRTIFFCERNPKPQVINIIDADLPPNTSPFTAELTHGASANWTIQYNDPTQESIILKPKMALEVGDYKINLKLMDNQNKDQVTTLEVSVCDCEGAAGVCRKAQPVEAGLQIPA
Description: (§1) The binding of the antibodies to human E-Cadherin.ECD.His (R&D-8505-NC-050, WBP319-hPro2.ECD.His (R&D)) and human N-Cadherin.ECD.His (R&D-1388-NC-050, WBP319-hPro3.ECD.hFcHis (R&D)) were tested by a captured protein binding ELISA. 96-well high protein binding ELISA plates (Nunc MaxiSorp, ThermoFisher, Cat #: 442404) were coated overnight at 4° C. with 1 μg/mL capture antibody (THETM His Tag mAb, GenScript, Cat #: A00186) in Carbonate-bicarbonate buffer (20 mM Na2CO3, 180 mM NaHCO3, pH=9.2). All wells were washed three time with 300 μL per well of PBS/0.5‰ Tween-20 (v/v) and all the following wash steps in the assay were performed the same. The wells were then blocked for one hour with 3% milk (Shanghai Dingguo-DH220)/1×PBS (Ca+/Mg+) (Gibco, #14040-117) and washed three times, followed by binding of 1 μg/mL antigens in 3% milk/1×PBS (Ca+/Mg+) for 1 hour at room temperature and three washes afterwards. […]
(§2) For the binding detection, 100 μL Tetramethylbenzidine (TMB) Substrate solution (Invitrogen, Cat #: 002023) was added to all wells for 10 minutes before stopping the reaction with 100 μL 2M HCl. The extent of the testing Abs binding to WBP319-hPro2.ECD.His (R&D)) and WBP319-hPro3.ECD.hFcHis (R&D) were determined by measuring the OD450 absorbance using the SpectraMax® M5e microplate reader. […]

[2] = molecular target: T2, WBP319-hPro3.ECD.hFcHis (R&D) (human, UniProt P19022 160-724); assay: capture ELISA, antigen held by anti-His antibody
T2 construct: extracellular domain; Bought protein; the text calls it ECD.His, the code says hFcHis; also called human N-Cadherin.ECD.His; Human N-Cadherin; not shown: human Fc and His tag by the code hFcHis
T2 sequence (looked up): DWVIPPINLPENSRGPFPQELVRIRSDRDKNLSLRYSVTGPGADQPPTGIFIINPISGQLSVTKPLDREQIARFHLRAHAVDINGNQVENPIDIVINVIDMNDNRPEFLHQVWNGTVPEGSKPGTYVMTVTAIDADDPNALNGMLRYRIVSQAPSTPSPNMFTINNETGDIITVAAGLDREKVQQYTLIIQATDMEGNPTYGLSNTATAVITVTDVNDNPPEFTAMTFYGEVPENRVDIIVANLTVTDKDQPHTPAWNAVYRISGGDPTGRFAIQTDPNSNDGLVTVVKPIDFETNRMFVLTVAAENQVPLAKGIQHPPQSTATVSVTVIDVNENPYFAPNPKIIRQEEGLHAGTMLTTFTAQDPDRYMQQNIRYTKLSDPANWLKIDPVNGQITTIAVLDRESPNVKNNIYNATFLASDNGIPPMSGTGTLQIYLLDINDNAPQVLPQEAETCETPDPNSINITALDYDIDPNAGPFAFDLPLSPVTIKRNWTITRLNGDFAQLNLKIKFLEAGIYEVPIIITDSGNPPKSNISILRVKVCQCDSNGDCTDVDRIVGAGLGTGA
Description: as §1, §2

[3] = molecular target: T3, Human P-cadherin on cells (human, UniProt P22223 108-829); assay: FACS on HCT-116 cells, antibody kept in human serum at 37 C, Day 1
T3 construct: whole, on cells; Endogenous P-cadherin on tumour cell lines; also called hPro1
T3 sequence (P22223 108-829): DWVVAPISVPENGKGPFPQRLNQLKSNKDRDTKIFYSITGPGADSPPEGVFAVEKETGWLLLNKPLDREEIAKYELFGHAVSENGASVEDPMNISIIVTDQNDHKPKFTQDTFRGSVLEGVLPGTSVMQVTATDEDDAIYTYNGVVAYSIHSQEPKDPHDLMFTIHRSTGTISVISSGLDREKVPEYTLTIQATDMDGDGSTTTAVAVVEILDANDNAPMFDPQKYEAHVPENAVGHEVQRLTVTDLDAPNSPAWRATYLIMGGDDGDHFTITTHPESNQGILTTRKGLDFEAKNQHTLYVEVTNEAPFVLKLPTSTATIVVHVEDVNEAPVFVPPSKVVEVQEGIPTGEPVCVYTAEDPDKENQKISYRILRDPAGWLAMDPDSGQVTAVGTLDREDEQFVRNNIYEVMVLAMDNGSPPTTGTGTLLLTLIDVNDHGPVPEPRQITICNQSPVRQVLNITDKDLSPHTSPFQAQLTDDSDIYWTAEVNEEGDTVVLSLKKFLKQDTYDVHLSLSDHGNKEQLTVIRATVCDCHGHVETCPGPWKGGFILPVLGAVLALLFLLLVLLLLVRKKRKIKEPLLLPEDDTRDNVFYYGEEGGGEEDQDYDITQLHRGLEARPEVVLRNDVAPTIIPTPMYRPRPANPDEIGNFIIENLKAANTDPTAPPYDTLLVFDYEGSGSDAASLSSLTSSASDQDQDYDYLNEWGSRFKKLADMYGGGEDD
Description: The antibody stability in human serum was tested by FACS. Briefly, human serum was freshly isolated by centrifuging the fresh blood twice at 4000 rpm for 10 minutes. […] As a control, antibodies serum mix was frozen immediately without 37° C. incubation. For the FACS analysis, the samples from different time points were free-thawed simultaneously at 4° C. […] The cells were washed twice with 1% BSA/1×PBS (Ca+/Mg+). Alexa647 conjugated Goat anti-human IgG Fc (Jackson, #109-605-098) 1:500 diluted in 1% BSA/1×PBS (Ca+/Mg+) were added to the cells and incubated at 4° C. for 30 minutes. Cells were washed twice in the same buffer and the mean fluorescence (MFI) of stained cells was measured using a FACS Canto II cytometer (BD Biosciences) and analyzed by FlowJo. Wells containing no antibody or secondary antibody only were used to establish background fluorescence. Four-parameter non-linear regression analysis was used to obtain EC50 values for cell binding using GraphPad Prism6 software.

EC50 [1]: > 100 nM | EC50 [2]: > 100 nM | EC50 [3]: 0.19 nM
B1: W3195-1.53.1-p1-uIgG1L (antibody)
heavy: not shown
light: SYELTQPPSVSVSPGQTAQITCSGDKLGDKFASWYQQKSGQSPVVVIYQDNKRPSGFPERFSGSNSGNTATLTISGTQAMDEADYYCQAWDSSIVVFGGGTKLTVLGQPKAAPSVTLFPPSSEELQANKATLVCLISDFYPGAVTVAWKADSSPVKAGVETTTPSKQSNNKYAASSYLSLTPEQWKSHRSYSCQVTHEGSTVEKTVAPTECS
notes: also called W3195-p1 antibody
